Test [1] concerns the target T1, FtsZ from Pseudomonas aeruginosa (P. aeruginosa, UniProt P47204 1-394).
T1 construct: FtsZ, Pseudomonas aeruginosa; pET15b containing the entire ftsZ gene (NdeI/BamHI); His6 tag removed with thrombin; The construct is from Chen et al., 2012; Residues of the vector may be left after the thrombin cut; Forms protofilaments with GTP; also called PaFtsZ; source: E. coli BL21(DE3), purified (Talon column, thrombin, source Q column)
T1 sequence (looked up): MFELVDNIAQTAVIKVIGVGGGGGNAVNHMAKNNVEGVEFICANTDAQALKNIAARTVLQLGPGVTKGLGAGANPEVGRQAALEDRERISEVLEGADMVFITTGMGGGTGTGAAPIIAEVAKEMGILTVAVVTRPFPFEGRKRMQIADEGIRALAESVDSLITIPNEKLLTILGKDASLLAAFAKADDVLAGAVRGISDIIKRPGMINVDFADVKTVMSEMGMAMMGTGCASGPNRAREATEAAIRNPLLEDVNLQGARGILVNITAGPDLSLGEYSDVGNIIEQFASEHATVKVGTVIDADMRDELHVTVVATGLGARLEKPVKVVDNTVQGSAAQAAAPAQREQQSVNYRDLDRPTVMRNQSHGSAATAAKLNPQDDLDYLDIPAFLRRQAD
In words: co-sedimentation; 15 uM FtsZ with 15 or 30 uM ZapAL, 1 mM GTP, 10 min at room temperature, 80,000 rpm for 30 min at 25 C (Beckman TLA100); pellet and supernatant by SDS-PAGE and ImageJ. The note with it: both partners purified.

The target in test [2] is T1, FtsZ from Pseudomonas aeruginosa. In words: light scattering; FtsZ with ZapAL, ZapA or a 1:1 mixture of both, mixed with 1 mM or 0.1 mM GTP, HMK buffer (50 mM HEPES pH 7.5, 5 mM MgAc, 100 mM KAc), room temperature, 340 nm. The note with it: both partners purified.

The record followed here is article PMC8371321, “A Novel Z-Ring Associated Protein ZapA-Like Protein (PA5407) From Pseudomonas aeruginosa Promotes FtsZ to Form Double Filaments” (Frontiers in Microbiology, 2021).

B1: ZapA-Like protein (ZapAL; PA5407) from Pseudomonas aeruginosa (natural protein, P. aeruginosa, UniProt Q9HTF7 1-96, looked up)
chain: MSRDGVQVLSILGRDYSIRVPAGEERALADAAALLQAEVDANKRKFPYVTSNELVVLSALNLCARQLGANDGESPRLRAVEQRLEALVERIAGASG
notes: ZapA-Like protein ZapAL (PA5407), Pseudomonas aeruginosa, 96 amino acids; pET15b containing the entire zapAL gene (NdeI/BamHI); Stored and used with the His6 tag; also called ZapL; source: E. coli BL21(DE3), purified (Talon column)
On to B1, for which the “stoichiometry N” value in test [1] was ~1 FtsZ:ZapAL (molar ratio).

B2: ZapA (PA5227) from Pseudomonas aeruginosa (natural protein, P. aeruginosa, UniProt Q9HTW3 1-104, looked up)
chain: MSQSNTLTVQILDKEYCINCPDDERANLESAARYLDGKMREIRSSGKVIGADRVAVMAALNITHDLLHRKERLDQESSSTRERVRELLDRVDRALANPADAGEA
notes: pET15b containing the entire zapA gene (NdeI/BamHI); The construct is from Rahman et al., 2020; Stored and used with the His6 tag; also called PA5207; source: E. coli BL21(DE3), purified (Talon column)
As to B2, the binding result in test [2] is listed as “binds”.
